Legend:
[1] = molecular target: HLA-A*02 complexed with EPS8L2 339-347 (…) on cells; experiment: cell-based or functional assay
[2] = molecular target: HLA-A*02 complexed with MAGE-A12 112-120 (…) on cells; experiment: cell-based or functional assay

fold decrease in potency in Jurkat/T2 cell assays, against the on-target MAGE-A3 peptide [1]: 500 fold | potency in Jurkat/T2 cell assays, against the on-target MAGE-A3 peptide [2]: 10 fold
Substance: A118T TCR (MAGE-A3 112-120 clinical TCR)
EC50 in primary human T cell cytotoxicity on peptide-loaded MCF7 cells, against the on-target EC50 [1]: < 10 fold
